Assay results as given in patent publication US20190309065A1.

Biological target: human PD-L1 (human) (UniProt Q9NZQ7)
Assay: cell-based or functional assay

UniProt Q9NZQ7, sequence (Q9NZQ7 19-290): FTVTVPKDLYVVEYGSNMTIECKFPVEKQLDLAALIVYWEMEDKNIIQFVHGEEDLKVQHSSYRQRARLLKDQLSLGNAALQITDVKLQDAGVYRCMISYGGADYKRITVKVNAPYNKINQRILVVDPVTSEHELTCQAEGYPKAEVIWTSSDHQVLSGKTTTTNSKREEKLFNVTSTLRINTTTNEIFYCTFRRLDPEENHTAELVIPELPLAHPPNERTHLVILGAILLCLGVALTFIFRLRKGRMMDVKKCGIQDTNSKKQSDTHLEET

fold increase in B*4201 TL9 tetramer+ CD8 T cells, 6-day CFSE proliferation assay of PBMC with TL9 peptide plus anti-PD-L1 blocking antibody (peptide alone: 4.8-fold): 10.3 fold
percentage of B*4201 TL9-specific CD8 T cells after 6-day stimulation with peptide, in the presence of anti-PD-L1 blocking antibody (without it: 5.7%): 12.4%
B1: monoclonal antibody to human PD-L1, clone 29E.2A3 (mouse IgG2b) (antibody, from another filing, V domains shown)
VH: EVQLQQSGPELVKPGASVKMSCKASGYTFTSYVMHWVKQKPGQGLEWIGYVNPFNDGTKYNEMFKGKATLTSDKSSSTAYMELSSLTSEDSAVYYCARQAWGYPWGQGTLVTVSA
VL: DIVLTQSPASLAVSLGQRATISCRATESVEYYGTSLVQWYQQKPGQPPKLLIYAASSVDSGVPARFSGSGSGTDFSLTIHPVEEDDIAMYFCQQSRRVPYTFGGGTKLEIK
